Laboratory results taken from US20260193376A1 (Novo Nordisk, published 2026).
Positions count from the first letter of the chain named.

B1: one-armed (OA) mAb11-1276 (antibody, V domains shown)
VH: EVQLVESGGGLVQPGRSLRLSCAASGFTFHDYAMHWVRQVPGKGLEWVSGISWKGDIGGYVDSVKGRFTISRDNEKNSLYLQMNSLRAEDTALYYCVKSYGSGSFYNAFDSWGQGTLVTVSS
VL: DIQMTQSPSTLSASVGDRVTITCRASQSISSWLAWYQQKPGKAPKFLIYKASRLDRGTPSRFSGSGSGTEFSLTISSLSPDDFATYYCLEYSSYIRTFGQGTKVEIK
B2: one-armed (OA) mAb11-1288 (antibody, V domains shown)
VH: B1 VH
VL: B1 VL with S60Q, S76Y, S79Q, S92N
B3: one-armed (OA) mAb11-1286 (antibody, V domains shown)
VH: B1 VH
VL: B1 VL with S76Y, S77D, S79Q, S92R
B4: one-armed (OA) mAb11-1499 (antibody, V domains shown)
VH: B1 VH with K54R, D62K, E75A
VL: B1 VL with R53K, S72T, S79Q
B5: one-armed (OA) mAb11-1360 (antibody, V domains shown)
VH: B1 VH with R19K, H30D, K54R, E75A, M83L
VL: B1 VL with F46L, D55E, S79Q
B6: one-armed (OA) mAb01-9933 (antibody, V domains shown)
VH: B1 VH with R19K, H30D, E75A, M83L, V97A
VL: B1 VL with V15A, R18E, F46L, R53K, T58V, S77D, S79Q
B7: one-armed (OA) mAb11-1502 (antibody, V domains shown)
VH: B1 VH with H30D, K54R, D62K, E75A
VL: B1 VL with F46L, R53K, S72T, S79Q
B8: one-armed (OA) mAb11-1389 (antibody, V domains shown)
VH: B1 VH with R19K, V40A, E75A, V97A
VL: B1 VL with V15A, S79Q
B9: one-armed (OA) mAb11-1501 (antibody, V domains shown)
VH: B1 VH with H30D, K54R, D62K, E75A
VL: B1 VL with R53K, S72T, S79Q
B10: one-armed (OA) mAb01-9697 (antibody, V domains shown)
VH: B1 VH with R19K, H30D, K54R, E75A, M83L
VL: B1 VL with D55E, S79Q
B11: one-armed (OA) mAb11-1358 (antibody, V domains shown)
VH: B1 VH with R19K, H30D, K54R, E75A, M83L
VL: B1 VL with V15A, R53K, S79Q
B12: one-armed (OA) mAb11-1282 (antibody, V domains shown)
VH: B1 VH
VL: B1 VL with S79Q, Y94W
B13: one-armed (OA) mAb01-9978 (antibody, V domains shown)
VH: B1 VH
VL: B1 VL with F46L, D55E, S79Q
B14: one-armed (OA) mAb11-1344 (antibody, V domains shown)
VH: B1 VH with R19K, H30D, E75A, M83L, V97A
VL: B1 VL with V15A, R53K, S79Q
B15: one-armed (OA) mAb11-1278 (antibody, V domains shown)
VH: B1 VH
VL: B1 VL with S79Q, S92Q
B16: one-armed (OA) mAb11-1279 (antibody, V domains shown)
VH: B1 VH
VL: B1 VL with S79Q, S92K
B17: one-armed (OA) mAb11-1495 (antibody, V domains shown)
VH: B1 VH with K54R, V61A, D62K, E75A
VL: B1 VL with R53K, S72T, S79Q

target: human plasma-derived Factor IXa (human, UniProt P00740 47-191; P00740 227-461); test: cell-based or functional assay
Sequence (P00740 47-191, chain 1 of 2): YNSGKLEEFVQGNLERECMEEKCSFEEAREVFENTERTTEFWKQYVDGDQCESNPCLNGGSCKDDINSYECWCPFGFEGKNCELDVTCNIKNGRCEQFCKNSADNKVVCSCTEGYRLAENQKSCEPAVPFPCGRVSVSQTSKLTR
Sequence (P00740 227-461, chain 2 of 2): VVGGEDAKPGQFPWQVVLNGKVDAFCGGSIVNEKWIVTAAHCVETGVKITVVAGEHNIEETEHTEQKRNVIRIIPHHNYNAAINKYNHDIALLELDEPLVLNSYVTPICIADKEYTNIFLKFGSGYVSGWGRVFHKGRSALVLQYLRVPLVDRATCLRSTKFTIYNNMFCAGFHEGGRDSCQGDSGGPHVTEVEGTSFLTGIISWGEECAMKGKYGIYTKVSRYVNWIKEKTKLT

Stimulation Index, FXa generation assay, 800 nM OA antibody	Stimulation Index, FXa generation assay, 1600 nM OA antibody	Stimulation Index, FXa generation assay, 3600 nM OA antibody	Stimulation Index, FXa generation assay, 3200 nM OA antibody	Binder
1740 fold				B1
2530 fold				B2
1820 fold				B3
	9010 fold			B4
1110 fold				B5
		6440 fold		B6
	5850 fold			B7
5790 fold				B8
	10300 fold			B9
			6540 fold	B10
2830 fold				B11
1460 fold				B12
		3670 fold		B13
4660 fold				B14
1690 fold				B15
1560 fold				B16
	7690 fold			B17
